Measurements: US20260224629A1 (Memorial Sloan Kettering, published 2026)

Biological target: T1, murine DLL3 (murine, UniProt O88516 33-592)
T1 construct: whole, on cells; Expressed endogenously on the murine SCLC (mSCLC) cell line; also called mDLL3; mouse DLL3
T1 sequence (looked up): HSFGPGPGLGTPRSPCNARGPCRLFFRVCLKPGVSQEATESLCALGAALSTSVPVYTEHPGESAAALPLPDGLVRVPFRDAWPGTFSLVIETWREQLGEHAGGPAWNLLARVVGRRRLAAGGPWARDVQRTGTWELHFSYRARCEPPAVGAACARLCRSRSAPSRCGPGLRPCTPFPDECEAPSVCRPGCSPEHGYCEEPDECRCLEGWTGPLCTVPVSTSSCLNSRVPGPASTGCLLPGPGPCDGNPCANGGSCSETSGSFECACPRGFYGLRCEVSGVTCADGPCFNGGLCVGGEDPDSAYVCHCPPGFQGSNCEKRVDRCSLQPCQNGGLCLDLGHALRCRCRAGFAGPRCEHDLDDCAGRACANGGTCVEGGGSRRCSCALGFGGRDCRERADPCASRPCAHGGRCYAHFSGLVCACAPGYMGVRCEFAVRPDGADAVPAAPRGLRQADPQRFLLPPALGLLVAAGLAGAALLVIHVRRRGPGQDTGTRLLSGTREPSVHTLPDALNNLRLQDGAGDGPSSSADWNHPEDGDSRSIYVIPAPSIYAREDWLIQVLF
Test: told in words; shown by lysis and IFN-γ release of CAR T cells in coculture with mSCLC cells that express murine DLL3
Description: The CAR consists of the SC16.8 single-chain variable fragment (scFv) and murine CD28 and CD3ζ domains. FIG. 2B measures the IFN-γ levels in supernatant of 24-hour coculture of murine CAR T cells with or without mSCLC cells. **P<0.01, ****P<0.0001 (2-way ANOVA, n=2). FIG. 2C depicts the survival of mice with metastatic mSCLC that were treated with the indicated doses of SC16.8m28mz CAR T cells (day 7) with or without 50 mg/kg cyclophosphamide pretreatment (day 6). **P<0.01 (log-rank test, n=4-6). FIG. 2D is a schematic of CAR design with SC16.8 scFv, murine CD28 and CD3ζ signaling domains, and the murine 1112 fusion transgene or murine 1118 transgene. IRES, internal ribosome entry site. FIG. 2E illustrates IFN-γ production by the respective CAR T cells in the absence and presence of mSCLC cells. *P<0.05, **P<0.01, ***P<0.001, ****P<0.0001 (2-way ANOVA and Student's t test, n=2-3). FIG. 2F depicts a luciferase killing assay with SC16.8 CAR T cells that express IL-12, IL-18, or no cytokine and 4H11 CAR T cells as negative control (n=3). FIGS. 2G and 2H depict serum IFN-γ and TNF-α levels (n=12-15) (2G) and circulating CAR T cells (n=5) (2H) in the blood of mice collected 3 days after treatment with the indicated CAR T cells. **P<0.01, ***P<0.001, ****P<0.0001 (1-way ANOVA). […] FIG. 2J illustrates the survival of mice in FIG. 2I. *P<0.05, ****P<0.0001 (log-rank test). […]

B1: SC16.8m28mz CAR (SC16.8 scFv with Flag-tag, murine CD28 transmembrane and intracellular domain and murine CD3zeta intracellular domain, on murine T cells) (scFv, V domains shown)
VH: QAQLQQSGAELVRPGTSVKVSCKASGYAFTNYLIEWVKQRPGQGLEWIGVINPGTGGTNYNENFKGKATLTADKSSSTAYMQLSSLTSDDSAVYFCARSPYDYHEGAMDYWGQGTSVTVSS
VL: EIQMTQSPSSMSASLGDRITITCQATQDIVKNLNWYQQKPGKPPSFLIYYAIELAEGVPSRFSGSGSGSDYSLTISNLESEDFADYYCLQFYEFPFTFGAGTKLELK
notes: Tested as a membrane CAR on transduced murine T cells; VH and VL are joined as an scFv; also called SC16.8 CAR (murine CAR T cells); the presently disclosed CAR
  binding result: binds
